The text below walks through data of patent US20020164696A1 (CHR HANSEN A S, published 2002).

The target of assay [1] is T1, synthetic peptide corresponding to bovine kappa-CN (bovine).
T1 construct: Synthetic substrate peptide, free N- and C-terminus as printed; also called Bt kappa-CN; bovine kappa-CN peptide
T1 peptide: HPHPHLS[Phe(4-NO2)]MAI
As to the kind of experiment: cleavage kinetics of the synthetic peptide at pH 5.6, Lineweaver-Burke plots; binding inferred from KM. The procedure: (§1) Two synthetic peptidases, which correspond to the chymosin sensitive regions of camel- and bovine κ-casein (CN), were proteolytically cleaved with bovine and camel chymosin, respectively. KM and kcat were determined at pH 5.6. Additionally, temperature and pH optima of these reactions were measured. The two following synthetic peptides were used in this study:
(§2) The measurement of samples was repeated 3 to 6 times, the Michaelis-Menten and the turnover values were determined from Lineweaver-Burke plots with weighted linear regression of data.

Assay [2] addresses T2, synthetic peptide corresponding to camel kappa-CN (camel).
T2 construct: Synthetic substrate peptide, free N- and C-terminus as printed; also called Cd kappa-CN; Cd kappa-CN peptide
T2 peptide: RPRPRPS[Phe(4-NO2)]IAI
Described as above. The protocol:
as §1, §2

Square brackets hold non-standard residues; d marks the D form. Ends that are not written are not given here. Phe(4-NO2) = N[C@@H](Cc1ccc([N+](=O)[O-])cc1)C(=O)O

B1: recombinant Camelus dromedarius chymosin (enzyme, UniProt Q9GK11 59-381, looked up)
chain: GKVAREPLTSYLDSQYFGKIYIGTPPQEFTVVFDTGSSDLWVPSIYCKSNVCKNHHRFDPRKSSTFRNLGKPLSIHYGTGSMEGFLGYDTVTVSNIVDPNQTVGLSTEQPGEVFTYSEFDGILGLAYPSLASEYSVPVFDNMMDRHLVARDLFSVYMDRNGQGSMLTLGAIDPSYYTGSLHWVPVTLQQYWQFTVDSVTINGVAVACVGGCQAILDTGTSVLFGPSSDILKIQMAIGATENRYGEFDVNCGNLRSMPTVVFEINGRDYPLSPSAYTSKDQGFCTSGFQGDNNSELWILGDVFIREYYSVFDRANNRVGLAKAI
notes: mature; also called Cd chymosin; camel chymosin
B1: the “substrate binding relative to bovine chymosin” value in assay [1] and in assay [2] was around 2 fold each time.
